According to patent US20200087400A1 (EUREKA THERAPEUTICS, published 2020):

Experiments:
[1] = target: T1, control peptide A2E-21/HLA-A*02:01 complex on T2 cells (member of the P19 mixture) (human); assay: flow cytometry, phage on T2 cells
T1 construct: Loaded on T2 cells as part of the mixture of 19 control peptides
Text: (§1) Binding of the phage clones was detected by HRP-conjugated anti-M13 antibodies and developed using HRP substrate. The absorbance was read at 450 nm. […] Then, unique antibody clones were identified through DNA sequencing of ELISA-positive clones. […] T2 cells loaded with different peptides and β2M were first stained with purified scFv phage clones, followed by staining with a mouse anti-M13 mAb, and finally R-PE conjugated horse anti-mouse IgG from Vector Labs. Each step of the staining was performed for between 30-60 minutes on ice and the cells were washed twice between stainings. All 16 clones recognized PSA146-loaded T2 cells specifically. FIG. 3 provides examples of PSA146/HLA-A*02:01 specific phage clone binding to peptide-loaded T2 cells through FACS. […] The negative control scFv phage clone presents a human antibody previously found not to bind any cell-surface human antigens.
(§2) To identify additional PSA146/HLA-A*02:01 specific phage clones.

[2] = target: T2, control peptide A2E-9/HLA-A*02:01 complex on T2 cells (member of the P19 mixture) (human); assay: flow cytometry, phage on T2 cells
T2 construct: Loaded on T2 cells as part of the mixture of 19 control peptides
Text: as §1, §2

[3] = target: T3, control peptide A2E-10/HLA-A*02:01 complex on T2 cells (member of the P19 mixture) (human); assay: flow cytometry, phage on T2 cells
T3 construct: Loaded on T2 cells as part of the mixture of 19 control peptides
Text: as §1, §2

[4] = target: T4, control peptide A2E-14/HLA-A*02:01 complex on T2 cells (member of the P19 mixture) (human); assay: flow cytometry, phage on T2 cells
T4 construct: Loaded on T2 cells as part of the mixture of 19 control peptides
Text: as §1, §2

[5] = target: T5, control peptide A2E-8/HLA-A*02:01 complex on T2 cells (member of the P19 mixture) (human); assay: flow cytometry, phage on T2 cells
T5 construct: Loaded on T2 cells as part of the mixture of 19 control peptides
Text: as §1, §2

[6] = target: T6, control peptide A2E-17/HLA-A*02:01 complex on T2 cells (member of the P19 mixture) (human); assay: flow cytometry, phage on T2 cells
T6 construct: Loaded on T2 cells as part of the mixture of 19 control peptides
Text: as §1, §2

[7] = target: T7, control peptide A2E-13/HLA-A*02:01 complex on T2 cells (member of the P19 mixture) (human); assay: flow cytometry, phage on T2 cells
T7 construct: Loaded on T2 cells as part of the mixture of 19 control peptides
Text: as §1, §2

[8] = target: T8, control peptide A2E-7/HLA-A*02:01 complex on T2 cells (member of the P19 mixture) (human); assay: flow cytometry, phage on T2 cells
T8 construct: Loaded on T2 cells as part of the mixture of 19 control peptides
Text: as §1, §2

[9] = target: T9, control peptide A2E-4/HLA-A*02:01 complex on T2 cells (member of the P19 mixture) (human); assay: flow cytometry, phage on T2 cells
T9 construct: Loaded on T2 cells as part of the mixture of 19 control peptides
Text: as §1, §2

[10] = target: T10, control peptide A2E-1/HLA-A*02:01 complex on T2 cells (member of the P19 mixture) (human); assay: flow cytometry, phage on T2 cells
T10 construct: Loaded on T2 cells as part of the mixture of 19 control peptides
Text: as §1, §2

[11] = target: T11, control peptide A2E-19/HLA-A*02:01 complex on T2 cells (member of the P19 mixture) (human); assay: flow cytometry, phage on T2 cells
T11 construct: Loaded on T2 cells as part of the mixture of 19 control peptides
Text: as §1, §2

[12] = target: T12, control peptide A2E-11/HLA-A*02:01 complex on T2 cells (member of the P19 mixture) (human); assay: flow cytometry, phage on T2 cells
T12 construct: Loaded on T2 cells as part of the mixture of 19 control peptides
Text: as §1, §2

[13] = target: T13, control peptide A2E-23/HLA-A*02:01 complex on T2 cells (member of the P19 mixture) (human); assay: flow cytometry, phage on T2 cells
T13 construct: Loaded on T2 cells as part of the mixture of 19 control peptides
Text: as §1, §2

[14] = target: T14, control peptide A2E-15/HLA-A*02:01 complex on T2 cells (member of the P19 mixture) (human); assay: flow cytometry, phage on T2 cells
T14 construct: Loaded on T2 cells as part of the mixture of 19 control peptides
Text: as §1, §2

[15] = target: T15, control peptide A2E-3/HLA-A*02:01 complex on T2 cells (member of the P19 mixture) (human); assay: flow cytometry, phage on T2 cells
T15 construct: Loaded on T2 cells as part of the mixture of 19 control peptides
Text: as §1, §2

[16] = target: T16, control peptide A2E-5/HLA-A*02:01 complex on T2 cells (member of the P19 mixture) (human); assay: flow cytometry, phage on T2 cells
T16 construct: Loaded on T2 cells as part of the mixture of 19 control peptides
Text: as §1, §2

[17] = target: T17, control peptide A2E-6/HLA-A*02:01 complex on T2 cells (member of the P19 mixture) (human); assay: flow cytometry, phage on T2 cells
T17 construct: Loaded on T2 cells as part of the mixture of 19 control peptides
Text: as §1, §2

[18] = target: T18, control peptide A2E-16/HLA-A*02:01 complex on T2 cells (member of the P19 mixture) (human); assay: flow cytometry, phage on T2 cells
T18 construct: Loaded on T2 cells as part of the mixture of 19 control peptides
Text: as §1, §2

[19] = target: T19, control peptide A2E-2/HLA-A*02:01 complex on T2 cells (member of the P19 mixture) (human); assay: flow cytometry, phage on T2 cells
T19 construct: Loaded on T2 cells as part of the mixture of 19 control peptides
Text: as §1, §2

[20] = target: T20, PSA 146-154 peptide/HLA-A*02:01 complex on the cell surface (human); assay: flow cytometry, phage on T2 cells, anti-M13 + R-PE anti-mouse IgG
T20 construct: also called PSA146/HLA-A*02:01; PSA146-loaded T2 cells
Text: as §1, §2

Binder	binding result [1]	binding result [2]	binding result [3]	binding result [4]	binding result [5]	binding result [6]	binding result [7]	binding result [8]	binding result [9]	binding result [10]	binding result [11]	binding result [12]	binding result [13]	binding result [14]	binding result [15]	binding result [16]	binding result [17]	binding result [18]	binding result [19]	binding result [20]
PSA146/HLA-A*02:01-specific scFv phage clone #20 (scFv, V domains shown) VH: EVQLVQSGAEVKKPGESLKISCKGSGYSFTSYRIGWVRQMPGKGLEWMGIIYPGDSDTRYSPSFQGQVTISADKSISTAYLQWSSLKASDTAMYYCARWGLSWDGWGVTDYWGQGTLVTVSS VL: not shown	no binding	no binding	no binding	no binding	no binding	no binding	no binding	no binding	no binding	no binding	no binding	no binding	no binding	no binding	no binding	no binding	no binding	no binding	no binding	binds
PSA146/HLA-A*02:01-specific scFv phage clone #24 (scFv, V domains shown) VH: QVQLVQSGAEVKKPGASVKVSCKASGYTFTSYYMHWVRQAPGKGLEWMGGFDPEDGETIYAQKFQGRVTMTEDTSTDTAYMELSSLRSEDTAVYYCARYPWDHWGQGTLVTVSS VL: QAVVTQEPSLTVSPGGTVTLTCASSTGAVTSGYYPNWFQQKPGQAPRPLIYSTNNKHSWTPARFSGSLLGGKAALTLSGVQPEDEAEYYCLLYYGGQGVFGGGTKLTVLG	no binding	no binding	no binding	no binding	no binding	no binding	no binding	no binding	no binding	no binding	no binding	no binding	no binding	no binding	no binding	no binding	no binding	no binding	no binding	binds
PSA146/HLA-A*02:01-specific scFv phage clone #21 (scFv, V domains shown) VH: QVQLVQSGAEVKKPGASVKVSCKASGYTFTSYYMHWVRQAPGKGLEWMGGFDPEDGETIYAQKFQGRVTMTEDTSTDTAYMELSSLRSEDTAVYYCARYNYDTWGQGTLVTVSS VL: QAVVTQEPSLTVSPGGTVTLTCASSTGTVTSTYYPNWFQQKPGQAPRALIYSTSNRHSWTPARFSGSLLGGKAALTVSGVQPDDEAEYYCLVFYGGVWVFGGGTKLTVLG	no binding	no binding	no binding	no binding	no binding	no binding	no binding	no binding	no binding	no binding	no binding	no binding	no binding	no binding	no binding	no binding	no binding	no binding	no binding	binds
PSA146/HLA-A*02:01-specific scFv phage clone #22 (scFv, V domains shown) VH: EVQLVQSGAEVKKPGESLKISCKGSGYSFTSYWIGWVRQMPGKGLEWMGRIDPSDSYTNYSPSFQGHVTISADKSISTAYLQWSSLKASDTAMYYCARSFGAGYDSWGQGTLVTVSS VL: QSALTQPASVSGSPGQSITISCTGTSSDVGGYNYVSWYQQHPGKAPKLMIYDVSKRPSGVSNRFSGSKSGNTASLTISGLQAEDEADYYCSSYTSSSRYVFGTGTKVTVLG	–	–	–	–	–	–	–	–	–	no binding	–	–	–	–	–	–	–	–	–	binds
